In the supplement of paper PMC9112550, “Optimization of the antimicrobial peptide Bac7 by deep mutational scanning” (BMC Biology, 2022):

Tested on: Escherichia coli TOP10
Experiment: shrunken log2 fold change of peptide-encoding DNA abundance (4.5 h post-induction vs induction); higher = less antimicrobial activity (less host growth inhibition)
Conditions: time post-induction: 4.5 h; library: site-saturation at positions 5, 18, 19, 20
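Note: peptides expressed intracellularly from a pBAD plasmid library in pooled LB shake-flask culture, induced with 0.3% L-arabinose, DNA abundance read by NGS, three biological replicates, DESeq2 with apeglm shrinkage.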

In order of rising “shrunken log2 fold change” value:
1. RRIRLRPPRLPRPRPRPYSEPRP  -1.71
2. RRIRSRPPRLPRPRPRPYMIPRP  -1.11
3. RRIRWRPPRLPRPRPRPYSPPRP  -1.1
4. RRIRYRPPRLPRPRPRPFVFPRP  -0.95
5. RRIRERPPRLPRPRPRPCNLPRP  -0.904
6. RRIRIRPPRLPRPRPRPYNKPRP  -0.783
7. RRIRHRPPRLPRPRPRPSWHPRP  -0.759
8. RRIRYRPPRLPRPRPRPTYDPRP  -0.73
9. RRIRPRPPRLPRPRPRPMFNPRP  -0.648
10. RRIRFRPPRLPRPRPRPLFHPRP  -0.632
11. RRIRPRPPRLPRPRPRPFLNPRP  -0.622
12. RRIRCRPPRLPRPRPRPINHPRP  -0.607
13. RRIRARPPRLPRPRPRPYSTPRP  -0.563
14. RRIRCRPPRLPRPRPRPFDVPRP  -0.479
15. RRIRVRPPRLPRPRPRPTKCPRP  -0.458
16. RRIRHRPPRLPRPRPRPTNHPRP  -0.457
17. RRIRYRPPRLPRPRPRPACHPRP  -0.453
18. RRIRFRPPRLPRPRPRPCIEPRP  -0.422
19. RRIRERPPRLPRPRPRPLTTPRP  -0.395
20. RRIRNRPPRLPRPRPRPYDQPRP  -0.37
21. RRIRSRPPRLPRPRPRPLKNPRP  -0.347
22. RRIRIRPPRLPRPRPRPHMWPRP  -0.321
23. RRIRRRPPRLPRPRPRPHMDPRP  -0.265
24. RRIRVRPPRLPRPRPRPLYDPRP  -0.257
25. RRIRHRPPRLPRPRPRPSLRPRP  -0.244
26. RRIRSRPPRLPRPRPRPSQHPRP  -0.24
27. RRIRQRPPRLPRPRPRPNYPPRP  -0.239
28. RRIRSRPPRLPRPRPRPCSKPRP  -0.234
29. RRIRYRPPRLPRPRPRPNWLPRP  -0.226
30. RRIRSRPPRLPRPRPRPIMQPRP  -0.216
31. RRIRTRPPRLPRPRPRPKIPPRP  -0.21
32. RRIRTRPPRLPRPRPRPGSSPRP  -0.209
33. RRIRKRPPRLPRPRPRPRTCPRP  -0.202
34. RRIRYRPPRLPRPRPRPHEGPRP  -0.199
35. RRIRFRPPRLPRPRPRPRLSPRP  -0.194
36. RRIRHRPPRLPRPRPRPMHPPRP  -0.193
37. RRIRWRPPRLPRPRPRPSNGPRP  -0.19
38. RRIRVRPPRLPRPRPRPIAYPRP  -0.184
39. RRIRARPPRLPRPRPRPSIMPRP  -0.178
40. RRIRERPPRLPRPRPRPFKNPRP  -0.174
41. RRIRYRPPRLPRPRPRPHEDPRP  -0.172
42. RRIRIRPPRLPRPRPRPCSLPRP  -0.172
43. RRIRQRPPRLPRPRPRPNTDPRP  -0.166
44. RRIRHRPPRLPRPRPRPHRFPRP  -0.162
45. RRIRKRPPRLPRPRPRPFSQPRP  -0.151
46. RRIRNRPPRLPRPRPRPASYPRP  -0.148
47. RRIRKRPPRLPRPRPRPAYHPRP  -0.144
48. RRIRYRPPRLPRPRPRPSKQPRP  -0.137
49. RRIRARPPRLPRPRPRPWVCPRP  -0.136
50. RRIRPRPPRLPRPRPRPYPYPRP  -0.124
51. RRIRNRPPRLPRPRPRPAETPRP  -0.119
52. RRIRIRPPRLPRPRPRPRQFPRP  -0.112
53. RRIRQRPPRLPRPRPRPIQNPRP  -0.11
54. RRIRARPPRLPRPRPRPHQHPRP  -0.109
55. RRIRSRPPRLPRPRPRPLLRPRP  -0.107
56. RRIRHRPPRLPRPRPRPADIPRP  -0.102
57. RRIRERPPRLPRPRPRPRWNPRP  -0.0995
58. RRIRKRPPRLPRPRPRPDGYPRP  -0.0936
59. RRIRHRPPRLPRPRPRPDNTPRP  -0.0928
60. RRIRLRPPRLPRPRPRPHYRPRP  -0.0911
61. RRIRRRPPRLPRPRPRPPNSPRP  -0.0871
62. RRIRLRPPRLPRPRPRPAVLPRP  -0.0831
63. RRIRKRPPRLPRPRPRPQYGPRP  -0.0781
64. RRIRMRPPRLPRPRPRPKTMPRP  -0.0578
65. RRIRDRPPRLPRPRPRPHKVPRP  -0.0568
66. RRIRFRPPRLPRPRPRPFAWPRP  -0.0558
67. RRIRVRPPRLPRPRPRPKQKPRP  -0.0521
68. RRIRLRPPRLPRPRPRPGMVPRP  -0.0517
69. RRIRLRPPRLPRPRPRPMQAPRP  -0.0495
70. RRIRYRPPRLPRPRPRPMARPRP  -0.0425
71. RRIRYRPPRLPRPRPRPEWFPRP  -0.0405
72. RRIRERPPRLPRPRPRPHLGPRP  -0.0405
73. RRIRPRPPRLPRPRPRPAYRPRP  -0.0399
74. RRIRERPPRLPRPRPRPLRDPRP  -0.0299
75. RRIRRRPPRLPRPRPRPLGNPRP  -0.0268
76. RRIRQRPPRLPRPRPRPWSTPRP  -0.0264
77. RRIRTRPPRLPRPRPRPDMTPRP  -0.0206
78. RRIRTRPPRLPRPRPRPWNTPRP  -0.0118
79. RRIRQRPPRLPRPRPRPQEFPRP  -0.0104
80. RRIRTRPPRLPRPRPRPMDRPRP  -0.01
81. RRIRDRPPRLPRPRPRPLNGPRP  -0.00962
82. RRIRQRPPRLPRPRPRPNEWPRP  -0.00822
83. RRIRYRPPRLPRPRPRPNFCPRP  -0.00468
84. RRIRVRPPRLPRPRPRPWSEPRP  -0.00215
85. RRIRQRPPRLPRPRPRPDLHPRP  0.00152
86. RRIRFRPPRLPRPRPRPVSDPRP  0.00637
87. RRIRNRPPRLPRPRPRPHCRPRP  0.00914
88. RRIRARPPRLPRPRPRPIKMPRP  0.0129
89. RRIRLRPPRLPRPRPRPCVMPRP  0.025
90. RRIRIRPPRLPRPRPRPDEYPRP  0.0287
91. RRIRNRPPRLPRPRPRPYERPRP  0.0318
92. RRIRARPPRLPRPRPRPSQAPRP  0.0359
93. RRIRIRPPRLPRPRPRPMQKPRP  0.0387
94. RRIRFRPPRLPRPRPRPSATPRP  0.0473
95. RRIRTRPPRLPRPRPRPHRVPRP  0.0498
96. RRIRLRPPRLPRPRPRPSLWPRP  0.062
97. RRIRVRPPRLPRPRPRPRCVPRP  0.0659
98. RRIRWRPPRLPRPRPRPMTSPRP  0.0704
99. RRIRFRPPRLPRPRPRPRRSPRP  0.0713
100. RRIRQRPPRLPRPRPRPSAGPRP  0.0717
101. RRIRLRPPRLPRPRPRPRGNPRP  0.0735
102. RRIRSRPPRLPRPRPRPSFWPRP  0.079
103. RRIRWRPPRLPRPRPRPKKMPRP  0.0841
104. RRIRNRPPRLPRPRPRPKIWPRP  0.0854
105. RRIRYRPPRLPRPRPRPKADPRP  0.0864
106. RRIRGRPPRLPRPRPRPSITPRP  0.0975
107. RRIRSRPPRLPRPRPRPRQVPRP  0.109
108. RRIRMRPPRLPRPRPRPMTLPRP  0.113
109. RRIRLRPPRLPRPRPRPRWWPRP  0.13
110. RRIRMRPPRLPRPRPRPPYPPRP  0.134
111. RRIRCRPPRLPRPRPRPVIDPRP  0.136
112. RRIRCRPPRLPRPRPRPGCCPRP  0.137
113. RRIRTRPPRLPRPRPRPVREPRP  0.139
114. RRIRKRPPRLPRPRPRPVKIPRP  0.158
115. RRIRERPPRLPRPRPRPVQGPRP  0.166
116. RRIRRRPPRLPRPRPRPPSKPRP  0.172
117. RRIRARPPRLPRPRPRPPIEPRP  0.188
118. RRIRERPPRLPRPRPRPDQWPRP  0.189
119. RRIRARPPRLPRPRPRPQPLPRP  0.209
120. RRIRTRPPRLPRPRPRPRIQPRP  0.214
121. RRIRRRPPRLPRPRPRPCEEPRP  0.218
122. RRIRARPPRLPRPRPRPKPEPRP  0.223
123. RRIRKRPPRLPRPRPRPMRYPRP  0.239
124. RRIRKRPPRLPRPRPRPPFTPRP  0.243
125. RRIRNRPPRLPRPRPRPVPTPRP  0.288
126. RRIRKRPPRLPRPRPRPECPPRP  0.306
127. RRIRARPPRLPRPRPRPRCQPRP  0.316
128. RRIRRRPPRLPRPRPRPRWNPRP  0.326
129. RRIRHRPPRLPRPRPRPKWRPRP  0.328
130. RRIRVRPPRLPRPRPRPIAPPRP  0.328
131. RRIRERPPRLPRPRPRPPAFPRP  0.331
132. RRIRFRPPRLPRPRPRPGFGPRP  0.337
133. RRIRPRPPRLPRPRPRPVRYPRP  0.346
134. RRIRLRPPRLPRPRPRPAPWPRP  0.354
135. RRIRDRPPRLPRPRPRPTASPRP  0.381
136. RRIRERPPRLPRPRPRPAQMPRP  0.392
137. RRIRCRPPRLPRPRPRPECGPRP  0.436
138. RRIRGRPPRLPRPRPRPRTVPRP  0.448
139. RRIRERPPRLPRPRPRPFPKPRP  0.459
140. RRIRRRPPRLPRPRPRPREIPRP  0.479
141. RRIRGRPPRLPRPRPRPEHLPRP  0.494
142. RRIRLRPPRLPRPRPRPHVEPRP  0.522
143. RRIRARPPRLPRPRPRPDFAPRP  0.533
144. RRIRRRPPRLPRPRPRPGLGPRP  0.55
145. RRIRGRPPRLPRPRPRPKQFPRP  0.566
146. RRIRGRPPRLPRPRPRPVRFPRP  0.685
147. RRIRKRPPRLPRPRPRPVWPPRP  0.699
148. RRIRVRPPRLPRPRPRPPPEPRP  0.755
149. RRIRKRPPRLPRPRPRPAAPPRP  1.6
150. RRIRTRPPRLPRPRPRPTHAPRP  4.04
